Results on 1 substance are retold here after paper PMC6783537.

This assay addresses full-length mouse IGF1R (MmIGF1R), residues 1–1262, Y951A, D1107N (mouse) (UniProt Q60751). Kind of assay: cryo-EM structure; purified MmIGF1R and HsIGF1 mixed at molar ratio 1:2, 1 h at 4 °C, complex purified by SEC in 20 mM Hepes-Na pH 7.4, 200 mM NaCl, 0.03% DDM; 4.3 Å. Background: Size exclusion chromatography separates by hydrodynamic size, large species first.

Sequence of full-length mouse IGF1R (MmIGF1R), residues 1–1262, Y951A, D1107N (mouse) (Q60751 31-1292 Y981A/D1137N): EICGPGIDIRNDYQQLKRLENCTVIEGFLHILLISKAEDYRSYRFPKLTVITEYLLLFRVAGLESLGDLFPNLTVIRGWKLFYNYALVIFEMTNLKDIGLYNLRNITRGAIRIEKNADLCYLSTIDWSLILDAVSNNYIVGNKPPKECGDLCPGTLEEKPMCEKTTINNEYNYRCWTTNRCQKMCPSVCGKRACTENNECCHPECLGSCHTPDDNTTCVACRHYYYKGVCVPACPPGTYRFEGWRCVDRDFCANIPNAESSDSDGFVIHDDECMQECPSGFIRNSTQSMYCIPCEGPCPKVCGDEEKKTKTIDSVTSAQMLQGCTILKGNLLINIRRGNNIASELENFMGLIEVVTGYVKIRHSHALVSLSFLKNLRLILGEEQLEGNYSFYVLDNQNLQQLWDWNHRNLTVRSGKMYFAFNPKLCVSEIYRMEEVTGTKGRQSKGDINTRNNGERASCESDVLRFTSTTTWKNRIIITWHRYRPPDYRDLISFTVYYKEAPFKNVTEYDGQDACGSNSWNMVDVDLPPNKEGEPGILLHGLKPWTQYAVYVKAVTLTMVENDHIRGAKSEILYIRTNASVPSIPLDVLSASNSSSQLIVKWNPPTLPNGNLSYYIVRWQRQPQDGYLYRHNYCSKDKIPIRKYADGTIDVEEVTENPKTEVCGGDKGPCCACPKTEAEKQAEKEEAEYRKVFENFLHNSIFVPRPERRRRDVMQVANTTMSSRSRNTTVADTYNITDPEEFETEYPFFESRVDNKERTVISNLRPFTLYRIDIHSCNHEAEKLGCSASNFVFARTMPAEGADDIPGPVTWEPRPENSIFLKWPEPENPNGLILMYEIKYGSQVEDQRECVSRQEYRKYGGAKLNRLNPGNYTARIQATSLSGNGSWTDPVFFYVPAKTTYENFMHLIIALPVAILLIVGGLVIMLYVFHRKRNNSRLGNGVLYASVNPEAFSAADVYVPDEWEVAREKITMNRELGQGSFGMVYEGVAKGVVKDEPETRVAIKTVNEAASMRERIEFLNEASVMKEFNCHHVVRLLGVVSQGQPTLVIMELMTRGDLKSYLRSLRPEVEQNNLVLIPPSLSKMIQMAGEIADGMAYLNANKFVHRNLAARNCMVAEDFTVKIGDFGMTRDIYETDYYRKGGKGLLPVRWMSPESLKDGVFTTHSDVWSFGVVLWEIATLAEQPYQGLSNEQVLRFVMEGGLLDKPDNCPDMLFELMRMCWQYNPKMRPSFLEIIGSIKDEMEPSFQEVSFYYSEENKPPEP

With “human IGF1 (HsIGF1), mature, residues 49–118 (ligand)”, the stoichiometry N (IGF1 per IGF1R dimer) turned out to be 1.
